Here are results for two molecules from patent publication US20260077004A1 (UNIVERSITY OF MASSACHUSETTS, published 2026).

The assay has as its target wild-type KCNH2 (human, UniProt Q12809 1-1159). Put plainly: cell-based or functional assay.

B1: full-length G628S KCNH2 (other)
chain: MPVRRGHVAPQNTFLDTIIRKFEGQSRKFIIANARVENCAVIYCNDGFCELCGYSRAEVMQRPCTCDFLHGPRTQRRAAAQIAQALLGAEERKVEIAFYRKDGSCFLCLVDVVPVKNEDGAVIMFILNFEVVMEKDMVGSPAHDTNHRGPPTSWLAPGRAKTFRLKLPALLALTARESSVRSGGAGGAGAPGAVVVDVDLTPAAPSSESLALDEVTAMDNHVAGLGPAEERRALVGPGSPPRSAPGQLPSPRAHSLNPDASGSSCSLARTRSRESCASVRRASSADDIEAMRAGVLPPPPRHASTGAMHPLRSGLLNSTSDSDLVRYRTISKIPQITLNFVDLKGDPFLASPTSDREIIAPKIKERTHNVTEKVTQVLSLGADVLPEYKLQAPRIHRWTILHYSPFKAVWDWLILLLVIYTAVFTPYSAAFLLKETEEGPPATECGYACQPLAVVDLIVDIMFIVDILINFRTTYVNANEEVVSHPGRIAVHYFKGWFLIDMVAAIPFDLLIFGSGSEELIGLLKTARLLRLVRVARKLDRYSEYGAAVLFLLMCTFALIAHWLACIWYAIGNMEQPHMDSRIGWLHNLGDQIGKPYNSSGLGGPSIKDKYVTALYFTFSSLTSVGFSNVSPNTNSEKIFSICVMLIGSLMYASIFGNVSAIIQRLYSGTARYHTQMLRVREFIRFHQIPNPLRQRLEEYFQHAWSYTNGIDMNAVLKGFPECLQADICLHLNRSLLQHCKPFRGATKGCLRALAMKFKTTHAPPGDTLVHAGDLLTALYFISRGSIEILRGDVVVAILGKNDIFGEPLNLYARPGKSNGDVRALTYCDLHKIHRDDLLEVLDMYPEFSDHFWSSLEITFNLRDTNMIPGSPGSTELEGGFSRQRKRKLSFRRRTDKDTEQPGEVSALGPGRAGAGPSSRGRPGGPWGESPSSGPSSPESSEDEGPGRSSSPLRLVPFSSPRPPGEPPGGEPLMEDCEKSSDTCNPLSGAFSGVSNIFSFWGDSRGRQYQELPRCPAPTPSLLNIPLSSPGRRPRGDVESRLDALQRQLNRLETRLSADMATVLQLLQRQMTLVPPAYSAVTTPGPGPTSTSPLLPVSPLPTLTLDSLSQVSQFMACEELPPGAPELPQEGPTRRLSLPGQLGALTSQPLHRHGSDPGS
For the molecule B1, the “reduction in sustained current (IKr) relative to GFP control cells, CHO cells” value worked out at 65% and the “reduction in tail current (IKr) relative to GFP control cells, CHO cells” value turned out to be 58%.

B2: truncated G628S KCNH2 (other)
chain: MPVRRGHVAPQNTFLDTIIRKFEGQSRKFIIANARVENCAVIYCNDGFCELCGYSRAEVMQRPCTCDFLHGPRTQRRAAAQIAQALLGAEERKVEIAFYRKDGSCFLCLVDVVPVKNEDGAVIMFILNFEVVMEKDMVGSPAHDTNHRGPPTSWLAPGRAKTFRLKLPALLALTARESSVRSGGAGGAGAPGAVVVDVDLTPAAPSSESLALDEVTAMDNHVAGLGPAEERRALVGPGSPPRSAPGQLPSPRAHSLNPDASGSSCSLARTRSRESCASVRRASSADDIEAMRAGVLPPPPRHASTGAMHPLRSGLLNSTSDSDLVRYRTISKIPQITLNFVDLKGDPFLASPTSDREIIAPKIKERTHNVTEKVTQVLSLGADVLPEYKLQAPRIHRWTILHYSPFKAVWDWLILLLVIYTAVFTPYSAAFLLKETEEGPPATECGYACQPLAVVDLIVDIMFIVDILINFRTTYVNANEEVVSHPGRIAVHYFKGWFLIDMVAAIPFDLLIFGSGSEELIGLLKTARLLRLVRVARKLDRYSEYGAAVLFLLMCTFALIAHWLACIWYAIGNMEQPHMDSRIGWLHNLGDQIGKPYNSSGLGGPSIKDKYVTALYFTFSSLTSVGFSNVSPNTNSEKIFSICVMLIGSLMYASIFGNVSAIIQRLYSGTARYHTQMLRVREFIRFHQIPNPLRQRLEEYFQHAWSYTNGIDMNAVLKGFPECLQADICLHLNRSLLQHCKPFRGATKGCLRALAMKFKTTHAPPGDTLVHAGDLLTALYFISRGSIEILRGDVVVAILGKNDIFGEPLNLYARPGKSNGDVRALTYCDLHKIHRDDLLEVLDMYPEFSDHFWSSLEITFNLRDTNMIPGSPGSTELEGGFSRQRKRKLSFRRRTDKDTEQPGEVSALGPGRAGAGPSSRG
With B2, the “reduction in sustained current (IKr) relative to GFP control cells, CHO cells” value was 70% and the “reduction in tail current (IKr) relative to GFP control cells, CHO cells” value turned out to be 78%.
